Among the data in patent publication US20130288275A1, “COMPOSITIONS AND METHODS FOR DETECTING ACETYLATED SUMO PROTEINS” (Georgetown University, priority 2010, published 2013) are apoptotic cells values, retold here.

The subject of this experiment is H1299 cells. The experiment in a line: Cell cycle analysis by flow cytometry. Type of experiment: cell-based, human. To be noted: H1299 cells infected with adenovirus expressing p53, 72 hours after infection. Here is the method: FIG. 5. […] 72 hours after infection, cells were harvested and their cell cycle profile was analyzed (see materials and methods). B-C.
Flow cytometry was performed as described previously by Knights, C. D., et al. J. Cell Biol. 173(4):533-544 (2006).

B1: SUMO-1K37-48R: SUMO-1 mutant with lysines K37-K39 and K45, K46 and K48 substituted with arginine (protein, UniProt P63165 2-97, looked up, variant K37R K39R K45R K46R K48R)
Small ubiquitin-related …: SDQEAKPSTEDLGDKKEGEYIKLKVIGQDSSEIHFRVRMTTHLRRLRESYCQRQGVPMNSLRFLFEGQRIADNHTPKELGMEEEDVIEVYQEQTGG
Molecule B1 gave an apoptotic cells of roughly 2%.
